Data on 1 molecule can be found in patent CN115819568A.

The assay deals with EV A71病毒样颗粒(VLP) (Enterovirus A71). The assay is described as follows: sandwich ELISA: rabbit anti-EV A71 VLP serum as capture, VLP titrated, antibody 1.2 ng/ul as detector, positive at OD450>0.15. In general terms: An ELISA detects its analyte on a solid surface through an enzyme-linked reagent.

B1: 肠道病毒A71单克隆抗体 1G10 (antibody, V domains shown)
VH: EVKLVESGGGLVKPGGSLKLSCAASGFTFSSYVMSWVRQTPEKRLEWVASISNGGSTFYPDSVKGRLTISRDNARNILYLQMSSLRSEDTAMYYCARAYGNDWYFDVWGAGTTVTVSS
VL: DIQMTQTTSSLSASLGDRVTISCRASQDISNYLNWYQQKPDGTVKLLIYYTSRLNSGVPSRFSGSGSGTDYSLTISNLEEEDIATYFCQQGNTAWTFGGGTKLEIKR
Molecule B1 had a 最低检出限度 of 3.12 ng/mL.
